# What was measured:
# [1] = biological target: actin filament pointed end (Oryctolagus cuniculus, UniProt P68135); test: pointed end elongation assay
# actin (ATP-actin:GS1) = actin (ATP-actin:GS1) (Oryctolagus cuniculus, UniProt P68135); test: ITC
Binder,Kd [1],Kd (actin (ATP-actin:GS1))
"Tropomodulin-1 (protein, 1 uM tropomyosin, filament seeds capped at barbed end by capping protein) MSYRRELEKYRDLDEDEILGALTEEELRTLENELDELDPDNALLPAGLRQKDQTTKAPTGPFKREELLDHLEKQAKEFKDREDLVPYTGEKRGKVWVPKQKPLDPVLESVTLEPELEEALANASDAELCDIAAILGMHTLMSNQQYYQALSSSSIMNKEGLNSVIKPTQYKPVPDEEPNSTDVEETLERIKNNDPKLEEVNLNNIRNIPIPTLKAYAEALKENSYVKKFSIVGTRSNDPVAYALAEMLKENKVLKTLNVESNFISGAGILRLVEALPYNTSLVEMKIDNQSQPLGNKVEMEIVSMLEKNATLLKFGYHFTQQGPRLRASNAMMNNNDLVRKRRLADLTGPIIPKCRSGV",0.028 µM,
"Tropomodulin-1 (protein, filament seeds capped at barbed end by capping protein) MSYRRELEKYRDLDEDEILGALTEEELRTLENELDELDPDNALLPAGLRQKDQTTKAPTGPFKREELLDHLEKQAKEFKDREDLVPYTGEKRGKVWVPKQKPLDPVLESVTLEPELEEALANASDAELCDIAAILGMHTLMSNQQYYQALSSSSIMNKEGLNSVIKPTQYKPVPDEEPNSTDVEETLERIKNNDPKLEEVNLNNIRNIPIPTLKAYAEALKENSYVKKFSIVGTRSNDPVAYALAEMLKENKVLKTLNVESNFISGAGILRLVEALPYNTSLVEMKIDNQSQPLGNKVEMEIVSMLEKNATLLKFGYHFTQQGPRLRASNAMMNNNDLVRKRRLADLTGPIIPKCRSGV",0.108 µM,

# Further lines, results first:
Kd [1],Kd (actin (ATP-actin:GS1)),Binder
,7.5 µM,"Tropomodulin-1 ABS1 50-101 (protein, actin in complex with gelsolin segment 1, ATP) QKDQTTKAPTGPFKREELLDHLEKQAKEFKDREDLVPYTGEKRGKVWVPKQK"
,10.5 µM,"Tropomodulin-1 ABS2 160-349 (protein, actin in complex with gelsolin segment 1, ATP) GLNSVIKPTQYKPVPDEEPNSTDVEETLERIKNNDPKLEEVNLNNIRNIPIPTLKAYAEALKENSYVKKFSIVGTRSNDPVAYALAEMLKENKVLKTLNVESNFISGAGILRLVEALPYNTSLVEMKIDNQSQPLGNKVEMEIVSMLEKNATLLKFGYHFTQQGPRLRASNAMMNNNDLVRKRRLADLTG"
